These are literature values, as cited in PMC8569200.

pKd: −log10 of the molar value.

This data set addresses CD137 (Homo sapiens) (UniProt Q07011). The data set can be described thus: SPR. (In general: In SPR one partner is held on a chip, and binding of the other changes the refractive index at the surface.)

CD137L, sequence (P41273 whole entry): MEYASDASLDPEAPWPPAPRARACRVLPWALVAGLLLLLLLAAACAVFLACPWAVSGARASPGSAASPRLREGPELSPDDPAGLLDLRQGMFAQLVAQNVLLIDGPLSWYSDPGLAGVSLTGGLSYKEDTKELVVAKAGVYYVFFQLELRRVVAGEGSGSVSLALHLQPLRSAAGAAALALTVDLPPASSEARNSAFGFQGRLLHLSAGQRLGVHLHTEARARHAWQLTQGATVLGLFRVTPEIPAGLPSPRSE
CD137 (Homo sapiens), sequence (Q07011 24-255): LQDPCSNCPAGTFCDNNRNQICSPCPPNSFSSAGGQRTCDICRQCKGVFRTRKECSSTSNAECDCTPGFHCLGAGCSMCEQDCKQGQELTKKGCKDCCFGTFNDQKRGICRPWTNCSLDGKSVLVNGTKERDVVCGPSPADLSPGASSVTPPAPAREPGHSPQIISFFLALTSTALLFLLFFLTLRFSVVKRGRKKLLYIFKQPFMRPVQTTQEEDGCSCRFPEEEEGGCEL

What is called pKd is the negative decadic logarithm of the Kd, by convention in mol/L. Take CD137L (from UniProt P41273): the pKd is 6.17.
